Experimental findings from patent publication US20230363418A1, “COMPOSITION FOR PREVENTING OR TREATING NEUROPSYCHOLOGIC DISEASE, COMPRISING MANF” (CEFO CO., LTD., priority 2020, published 2023) are described below.

Common to all, as to type: in vivo, rat
For assay [1], the system named is IBO-administered memory impairment and autism model. Nature of the assay: Open space behavior test (anxiety behavior). On the procedure: (§1) Memory impairment and autism models were prepared by administering IBO to the entorhinal cortex of the rats, wherein the IBO destroys granule cells of the dentate gyrus (DG) and pyramidal cells of the hippocampus, which receive nerve signals input from the entorhinal cortex. Specifically, the rats were anesthetized with equitensin (10% ethanol containing 350 mM pentobarbital sodium, 250 mM chloral hydrate, 85 mM MgSO and 40% propylene glycol). The incisor bar of a stereotaxic device (Stoelting Co., U.S.A.) was placed 3.4 mm below the interaural line, and the injection needle angle was fixed at […] right from the center of the sagittal plane. 1.5 ul of IBO (1 mg/ml) was injected into the entorhinal cortex of the rat using the stereotaxic device. The IBO was injected into three locations of first, AP: -8.4, ML: -4.8, DV: -4.6; Second, AP; -8.4, ML: -4.8, DV: 2.3; Third, AP: -8.8, ML: - 3.65, DV: -3.4 (FIG. 7).
After 2-3 IBO injections, each group was randomly classified into an IBO-administrated group (negative control group), and a GFP-AAV-hMSC-administrated group (GFP-AAV) and a MANF-AAV-hMSC-administrated group […] as a control group. A rest period of one week was provided. […]

The test system is the same in assay [2]. Nature of the assay: Morris water maze experiment. The conditions noted are these: MANF-AAV-hMSC transplanted into the hippocampus of IBO rats. On the procedure: as §1, with “1.5 ul of IBO (1 mg/ml) was injected into the entorhinal cortex of the rat using the stereotaxic device. The IBO was injected into three locations of first, AP: -8.4, ML: -4.8, DV: -4.6; Second, AP; -8.4, ML: -4.8, DV: 2.3; Third, AP: -8.8, ML: - 3.65, DV: -3.4 (FIG. 7).” left out
The same number of rats as in each group of Example 6-1 was subjected to the Morris water maze experiment in a round, rust-free and inner surface-white swimming pool (diameter 160 cm; height 60 cm). […] The final experiment measured the time the rat stayed where the platform was for 60 seconds after removing the platform (probe trial). Swimming time and training length were tracked and recorded using a video camera. […] The captured video pictures were analyzed with a video tracking system (Ethovision water maze program, Noldus Information Technology, Wogeningen, The Netherlands). The analyzed information included the time of swimming in the target quadrant, and the number of crossings the imaginary platform to find the removed platform.

For assay [3] the test system is unchanged. Kind of assay: Passive avoidance test. The conditions noted are these: MANF-AAV-hMSC transplanted into the hippocampus of IBO rats. The protocol:
as §1, with “7). […]” for “7).”
It was performed according to the method described in Heo Het al. (2009) for the same number of rats as in each group of Example 6-1. […] Exactly 24 hours after the adaptation training, the rats were placed in the bright room again, and the latency time to enter the dark room was measured for 720 seconds (confinement experiment).

B1: MANF: one of 16 or more growth factors secreted into nerve stem cells by cerebrovascular cells; amino acid sequence of SEQ ID NO: 1 (protein)
chain: MRRMWATQGLAVALALSVLPGSRALRPGDCEVCISYLGRFYQDLKDRDVTFSPATIENELIKFCREARGKENRLCYYIGATDDAATKIINEVSKPLAHHIPVEKICEKLKKKDSQICELKYDKQIDLSTVDLKKLRVKELKKILDDWGETCKGCAEKSDYIRKINELMPKYAPKAASARTDL
modifications: MANF
With B1, the results for the “time in the center” value in assay [1] (compared to the IBO group) and in assay [1] (compared to the MSC group) were “significantly increased” and “also increased”, respectively. The “memory ability in Morris water maze test” value in assay [2] is recorded as “memory improvement”. Moreover, the “memory ability in passive avoidance test” value in assay [3] is “memory improvement”.
